Source: publication PMC6742228

Target: A/Puerto Rico/8/1934 (H1) HA (influenza A virus A/Puerto Rico/8/1934 (H1N1)) (UniProt P03452)

Row | Substance | HA-pseudovirus neutralization titer (IC95), 293T cells [µg/mL] | Plaque reduction titer (IC50), replicating virus on MDCK cells [µg/mL]
1 | MAb C179 (antibody) | 0.31 | 27.7
2 | MAb CR6261 (antibody) | 0.09 | –
3 | MAb FI6 (antibody) | 0.11 | 3.7
